Experimental data taken from PMC2723102 (2009).
Where no end group is shown, it is not given here. [ ]: non-standard residue; d: D form. pY = N[C@@H](Cc1ccc(OP(=O)(O)O)cc1)C(=O)O; pT = C[C@@H](OP(=O)(O)O)[C@H](N)C(=O)O

T1: GST-NUMB-p71 (region with the PTB domain)
T1 chain: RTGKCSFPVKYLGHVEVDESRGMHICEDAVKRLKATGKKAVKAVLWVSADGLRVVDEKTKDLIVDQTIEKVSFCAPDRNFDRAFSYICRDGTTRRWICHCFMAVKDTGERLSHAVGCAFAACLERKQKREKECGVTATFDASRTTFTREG

T2: GST-X11β (domain)
T2 chain: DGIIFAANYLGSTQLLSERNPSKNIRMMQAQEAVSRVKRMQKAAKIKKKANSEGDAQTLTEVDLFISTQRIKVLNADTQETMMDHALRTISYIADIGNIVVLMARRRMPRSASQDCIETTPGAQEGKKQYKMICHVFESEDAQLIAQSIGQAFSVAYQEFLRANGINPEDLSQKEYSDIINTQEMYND


Key:
Assay in all cases: SPR
[1] = molecular target: T1, GST-NUMB-p71 (region with the PTB …)
GST-X11β (domain) = molecular target: T2, GST-X11β (domain)
[2] = molecular target: GST-Grb2 domain (GST-SH2 recombinant protein)
Chain of GST-Grb2 domain (GST-SH2 recombinant protein) (chain, as listed by the source): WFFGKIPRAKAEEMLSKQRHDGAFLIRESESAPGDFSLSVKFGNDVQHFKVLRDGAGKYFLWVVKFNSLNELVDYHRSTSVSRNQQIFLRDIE

Kd [1] [nM]	Kd (GST-X11β (domain)) [nM]	Kd [2] [nM]	Binder
105	8.48	–	VMLKKKQYTSIHHGVVEVDAAVTPEERHLSKMQQNGYENPTYKFFEQMQN (also: strep-tag, position not given here) [strep-tag AID peptide (APP intracellular domain, last 50 amino acids of APP), non-phosphorylated]
–	–	2.57	VMLKKKQYTSIHHGVVEVDAAVTPEERHLSKMQQNG[pY]ENPTYKFFEQMQN (also: strep-tag, place not given here) [strep-tag AID peptide phosphorylated on Tyr-682]
–	13.1	0.413	VMLKKKQYTSIHHGVVEVDAAV[pT]PEERHLSKMQQNG[pY]ENPTYKFFEQMQN (also: strep-tag, place not given here) [strep-tag AID peptide phosphorylated on Thr-668 and Tyr-682]
–	33.5	–	VMLKKKQYTSIHHGVVEVDAAV[pT]PEERHLSKMQQNGYENPTYKFFEQMQN (also: strep-tag, position not given here) [strep-tag AID peptide phosphorylated on Thr-668]
